In patent US20150344570A1 (published 2015):

T1: FcγRIIb extracellular domain with C-terminal His tag (human, UniProt P31994 43-217)
T1 construct: extracellular domain; Expressed in FreeStyle293 cells; analyte in the SPR assay; also called FcgRIIb; 2b
T1 sequence (looked up): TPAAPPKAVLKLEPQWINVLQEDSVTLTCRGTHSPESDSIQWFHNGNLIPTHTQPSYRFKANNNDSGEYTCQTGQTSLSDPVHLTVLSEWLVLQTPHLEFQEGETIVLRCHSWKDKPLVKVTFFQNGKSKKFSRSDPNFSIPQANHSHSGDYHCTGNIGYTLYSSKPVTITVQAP

B1: GpH7-A5/GpH7-B3 variant E269_01G/GpL16-k0 (He Ab) (antibody, human IgG1, kappa)
heavy 1: not shown
heavy 2: not shown
light: DIVMTQSPLSLPVTPGEPASISCQASESLVHSNRNTYLHWYLQKPGQSPQLLIYKVSNRFSGVPDRFSGSGSGTDFTLKISRVEAEDVGVYYCSQNTHVPPTFGQGTKVEIERTVAAPSVFIFPPSDEQLKSGTASVVCLLNNFYPREAKVQWKVDNALQSGNSQESVTEQDSKDSTYSLSSTLTLSKADYEKHKVYACEVTHQGLSSPVTKSFNRGEC
notes: He Ab: mutation in one H chain only
B2: GpH7-A5/GpH7-B3 variant E269_05P/GpL16-k0 (He Ab) (antibody, human IgG1, kappa)
heavy 1: not shown
heavy 2: not shown
light: B1 light
notes: as for B1
B3: GpH7-A5/GpH7-B3 variant E269_08L/GpL16-k0 (He Ab) (antibody, human IgG1, kappa)
heavy 1: not shown
heavy 2: not shown
light: B1 light
notes: as for B1
B4: GpH7-A5/GpH7-B3 variant E269_14T/GpL16-k0 (He Ab) (antibody, human IgG1, kappa)
heavy 1: not shown
heavy 2: not shown
light: B1 light
notes: as for B1
B5: GpH7-A5/GpH7-B3 variant P271_11K/GpL16-k0 (He Ab) (antibody, human IgG1, kappa)
heavy 1: not shown
heavy 2: not shown
light: B1 light
notes: as for B1
B6: GpH7-A5/GpH7-B3 variant E269_06M/GpL16-k0 (He Ab) (antibody, human IgG1, kappa)
heavy 1: not shown
heavy 2: not shown
light: B1 light
notes: as for B1
B7: GpH7-A5/GpH7-B3 variant E269_07I/GpL16-k0 (He Ab) (antibody, human IgG1, kappa)
heavy 1: not shown
heavy 2: not shown
light: B1 light
notes: as for B1
B8: GpH7-A5/GpH7-B3 variant E269_20W/GpL16-k0 (He Ab) (antibody, human IgG1, kappa)
heavy 1: not shown
heavy 2: not shown
light: B1 light
notes: as for B1
B9: GpH7-A5/GpH7-B3 variant P271_18N/GpL16-k0 (He Ab) (antibody, human IgG1, kappa)
heavy 1: not shown
heavy 2: not shown
light: B1 light
notes: as for B1
B10: GpH7-A5/GpH7-B3 variant H268_11K/GpL16-k0 (He Ab) (antibody, human IgG1, kappa)
heavy 1: not shown
heavy 2: not shown
light: B1 light
notes: as for B1
B11: GpH7-A5/GpH7-B3 variant H268_14T/GpL16-k0 (He Ab) (antibody, human IgG1, kappa)
heavy 1: not shown
heavy 2: not shown
light: B1 light
notes: as for B1
B12: GpH7-A5/GpH7-B3 variant E269_16H/GpL16-k0 (He Ab) (antibody, human IgG1, kappa)
heavy 1: not shown
heavy 2: not shown
light: B1 light
notes: as for B1
B13: GpH7-A5/GpH7-B3 variant P271_07I/GpL16-k0 (He Ab) (antibody, human IgG1, kappa)
heavy 1: not shown
heavy 2: not shown
light: B1 light
notes: as for B1
B14: GpH7-A5/GpH7-B3 variant E269_18N/GpL16-k0 (He Ab) (antibody, human IgG1, kappa)
heavy 1: not shown
heavy 2: not shown
light: B1 light
notes: as for B1
B15: GpH7-A5/GpH7-B3 variant H268_08L/GpL16-k0 (He Ab) (antibody, human IgG1, kappa)
heavy 1: not shown
heavy 2: not shown
light: B1 light
notes: as for B1
B16: GpH7-A5/GpH7-B3 variant P271_16H/GpL16-k0 (He Ab) (antibody, human IgG1, kappa)
heavy 1: not shown
heavy 2: not shown
light: B1 light
notes: as for B1
B17: GpH7-A5/GpH7-B3 variant E269_13S/GpL16-k0 (He Ab) (antibody, human IgG1, kappa)
heavy 1: not shown
heavy 2: not shown
light: B1 light
notes: as for B1
B18: GpH7-A5/GpH7-B3 variant P271_19Q/GpL16-k0 (He Ab) (antibody, human IgG1, kappa)
heavy 1: not shown
heavy 2: not shown
light: B1 light
notes: as for B1
B19: GpH7-A5/GpH7-B3 variant H268_07I/GpL16-k0 (He Ab) (antibody, human IgG1, kappa)
heavy 1: not shown
heavy 2: not shown
light: B1 light
notes: as for B1
B20: GpH7-A5/GpH7-B3 variant E269_15Y/GpL16-k0 (He Ab) (antibody, human IgG1, kappa)
heavy 1: not shown
heavy 2: not shown
light: B1 light
notes: as for B1
B21: GpH7-A5/GpH7-B3 variant L234_15Y/GpL16-k0 (He Ab) (antibody, human IgG1, kappa)
heavy 1: not shown
heavy 2: not shown
light: B1 light
notes: as for B1
B22: GpH7-A5/GpH7-B3 variant H268_06M/GpL16-k0 (He Ab) (antibody, human IgG1, kappa)
heavy 1: not shown
heavy 2: not shown
light: B1 light
notes: as for B1
B23: GpH7-A5/GpH7-B3 variant P271_03V/GpL16-k0 (He Ab) (antibody, human IgG1, kappa)
heavy 1: not shown
heavy 2: not shown
light: B1 light
notes: as for B1

biological target: T1, FcγRIIb extracellular domain with …; test: SPR (Biacore), relative binding, HeCon Ab = 100

Row | He/Con_2b | Binder
1 | 51.5 % of HeCon Ab (=100) | B1
2 | 52.6 % of HeCon Ab (=100) | B2
3 | 42.9 % of HeCon Ab (=100) | B3
4 | 50.6 % of HeCon Ab (=100) | B4
5 | 90.2 % of HeCon Ab (=100) | B5
6 | 46.7 % of HeCon Ab (=100) | B6
7 | 43.9 % of HeCon Ab (=100) | B7
8 | 42.5 % of HeCon Ab (=100) | B8
9 | 93.3 % of HeCon Ab (=100) | B9
10 | 83 % of HeCon Ab (=100) | B10
11 | 86 % of HeCon Ab (=100) | B11
12 | 38.5 % of HeCon Ab (=100) | B12
13 | 76.8 % of HeCon Ab (=100) | B13
14 | 44.8 % of HeCon Ab (=100) | B14
15 | 67.8 % of HeCon Ab (=100) | B15
16 | 67.9 % of HeCon Ab (=100) | B16
17 | 47.8 % of HeCon Ab (=100) | B17
18 | 88.6 % of HeCon Ab (=100) | B18
19 | 88.9 % of HeCon Ab (=100) | B19
20 | 44.7 % of HeCon Ab (=100) | B20
21 | 96.3 % of HeCon Ab (=100) | B21
22 | 65.7 % of HeCon Ab (=100) | B22
23 | 74.8 % of HeCon Ab (=100) | B23

biological target: T2, FcγRIa extracellular domain with C-terminal His tag (human, UniProt P12314 16-292); test: SPR (Biacore), relative binding, HeCon Ab = 100
T2 construct: extracellular domain; Expressed in FreeStyle293 cells; analyte in the SPR assay; also called FcgRI; 1a
T2 sequence (P12314 16-292): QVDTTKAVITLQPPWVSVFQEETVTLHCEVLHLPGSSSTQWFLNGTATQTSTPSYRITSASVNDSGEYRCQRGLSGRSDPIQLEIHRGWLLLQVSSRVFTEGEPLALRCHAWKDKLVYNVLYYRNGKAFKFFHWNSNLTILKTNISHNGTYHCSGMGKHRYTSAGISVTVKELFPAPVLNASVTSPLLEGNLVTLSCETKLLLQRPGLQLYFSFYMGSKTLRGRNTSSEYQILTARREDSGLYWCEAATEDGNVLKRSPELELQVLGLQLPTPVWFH

Row | He/Con_1a | Binder
24 | 104 % of HeCon Ab (=100) | B1
25 | 102 % of HeCon Ab (=100) | B2
26 | 104 % of HeCon Ab (=100) | B3
27 | 106 % of HeCon Ab (=100) | B4
28 | 103 % of HeCon Ab (=100) | B5
29 | 104 % of HeCon Ab (=100) | B6
30 | 103 % of HeCon Ab (=100) | B7
31 | 105 % of HeCon Ab (=100) | B8
32 | 103 % of HeCon Ab (=100) | B9
33 | 106 % of HeCon Ab (=100) | B10
34 | 112 % of HeCon Ab (=100) | B11
35 | 106 % of HeCon Ab (=100) | B12
36 | 102 % of HeCon Ab (=100) | B13
37 | 102 % of HeCon Ab (=100) | B14
38 | 107 % of HeCon Ab (=100) | B15
39 | 102 % of HeCon Ab (=100) | B16
40 | 103 % of HeCon Ab (=100) | B17
41 | 103 % of HeCon Ab (=100) | B18
42 | 108 % of HeCon Ab (=100) | B19
43 | 106 % of HeCon Ab (=100) | B20
44 | 100 % of HeCon Ab (=100) | B21
45 | 105 % of HeCon Ab (=100) | B22
46 | 102 % of HeCon Ab (=100) | B23
